Results on four sequences are retold here after patent publication US20160030477.

Common to all, as to test: cell_activity
In one data set the test system is ZFN 50773 (synthetic). The note with it: pair 50773/49812, K562, AAV6 donor.
Another data set relates to ZFN 49812 (synthetic). The note with it: pair 50773/49812, K562, AAV6 donor.
A further data set has as its system ZFN 44271 (synthetic). The note with it: pair 44298:44271, K562, day 3 (36.6% day 10; GFP 0.2%).
In the next data set the test system is ZFN 44298 (synthetic). The note with it: pair 44298:44271, K562, day 3 (36.6% day 10; GFP 0.2%).

In the data set on ZFN 50773 (synthetic), “ATGATAAAGCTGCAAACCCAAAGAAACT (double strand) [RAG1 site 4 (50773)]” had an activity (% targeted integration) of 5. As to “CTTTTATGACCCATTTGGAAGAAATAAA (double strand) [RAG1 site 4 (55002/55005/49812)]”, the activity (% targeted integration) in the data set on ZFN 49812 (synthetic) came to 5. “GCCAGTGGCAGGCACCAGATCTCTGTAC (double strand) [IL2RG 44271 site]” returned an activity with ZFN 44271 (synthetic) of 42.8 % indels. As to “TTACAATCATGTGGGCAGAATTGAAAAG (double strand) [IL2RG 44298 site]”, in the data set with ZFN 44298 (synthetic), the activity turned out to be 42.8 % indels.
